This is an account of results in patent US20200048358A1 (ALLIGATOR BIOSCIENCE, published 2020).

T1: chimeric OX40 construct 1545: Human OX40 with mouse domains 1B, 2A and 2B (aa 43-107) (human; mouse, UniProt P47741 39-103)
T1 construct: domain: 1B, 2A and 2B; On 293-F cells; limits derived as for 1544
T1 sequence: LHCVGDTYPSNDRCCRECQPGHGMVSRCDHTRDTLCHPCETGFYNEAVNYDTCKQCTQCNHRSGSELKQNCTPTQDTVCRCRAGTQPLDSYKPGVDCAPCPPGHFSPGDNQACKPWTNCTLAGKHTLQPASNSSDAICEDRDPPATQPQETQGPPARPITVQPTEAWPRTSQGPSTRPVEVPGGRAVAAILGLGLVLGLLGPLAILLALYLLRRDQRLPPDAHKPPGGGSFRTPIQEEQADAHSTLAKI

T2: chimeric OX40 construct 1546: Human OX40 with mouse domains 2A, 2B and module 3 (aa 66-126) (human; mouse, UniProt P47741 62-124)
T2 construct: domain: 2A, 2B and module 3; On 293-F cells; limits derived as for 1544
T2 sequence: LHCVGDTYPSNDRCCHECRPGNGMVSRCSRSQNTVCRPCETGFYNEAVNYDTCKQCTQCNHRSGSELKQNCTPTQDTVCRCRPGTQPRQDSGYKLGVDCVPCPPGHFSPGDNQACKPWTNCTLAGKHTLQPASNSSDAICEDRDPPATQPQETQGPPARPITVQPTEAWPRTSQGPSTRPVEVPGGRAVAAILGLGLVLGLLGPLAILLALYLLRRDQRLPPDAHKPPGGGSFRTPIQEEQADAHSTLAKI

T3: chimeric OX40 construct 1547: Human OX40 with mouse domain 2B, module 3 and domain 4A (aa 83-141) (human; mouse, UniProt P47741 79-139)
T3 construct: domain: 2B, module 3 and domain 4A; On 293-F cells; limits derived as for 1544
T3 sequence: T2 sequence with E40G, T41P, E46D, A47V, N49S, Y50S, D51K, T52P, D111N

T4: chimeric OX40 construct 1548: Human OX40 with mouse module 3 and domains 4A and 4B (aa 108-167) (human; mouse, UniProt P47741 104-165)
T4 construct: domain: module 3 and domains 4A and 4B; On 293-F cells; limits derived as for 1544
T4 sequence: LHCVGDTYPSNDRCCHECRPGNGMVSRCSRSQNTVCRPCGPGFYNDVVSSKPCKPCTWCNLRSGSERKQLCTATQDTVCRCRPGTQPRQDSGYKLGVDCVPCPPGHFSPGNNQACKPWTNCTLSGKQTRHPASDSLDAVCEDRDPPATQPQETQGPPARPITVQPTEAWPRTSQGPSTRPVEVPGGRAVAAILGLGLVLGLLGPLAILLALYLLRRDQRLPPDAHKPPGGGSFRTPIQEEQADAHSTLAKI

T5: construct 84: Construct containing the full length OX40 sequence (human, UniProt P43489 29-277)
T5 construct: On transiently transfected FreeStyle 293-F cells; also called human OX40 (full length, on 293-F cells)
T5 sequence: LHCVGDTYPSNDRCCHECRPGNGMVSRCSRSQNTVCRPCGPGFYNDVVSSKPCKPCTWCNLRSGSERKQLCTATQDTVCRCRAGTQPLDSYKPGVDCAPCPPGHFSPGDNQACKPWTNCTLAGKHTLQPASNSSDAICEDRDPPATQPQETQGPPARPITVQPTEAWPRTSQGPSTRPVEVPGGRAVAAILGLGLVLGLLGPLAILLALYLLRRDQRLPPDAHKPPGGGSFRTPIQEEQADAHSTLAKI

B1: anti-OX40 antibody 1164/1135 (antibody, V domains shown)
VH: EVQLLESGGGLVQPGGSLRLSCAASGFTFYGSSMYWVRQAPGKGLEWVSGIYSSGGYTSYADSVKGRFTISRDNSKNTLYLQMNSLRAEDTAVYYCARGVPHGYFDYWGQGTLVTVSS
VL: not shown
notes: Tested as IgG
B2: anti-OX40 antibody 1514/1515 (antibody, V domains shown)
VH: EVQLLESGGGLVQPGGSLRLSCAASGFTFGYYYMSWVRQAPGKGLEWVSGISSYGSYTYYADSVKGRFTISRDNSKNTLYLQMNSLRAEDTAVYYCARSGYSNWANSFDYWGQGTLVTVSS
VL: DIQMTQSPSSLSASVGDRVTITCRASQSISSYLNWYQQKPGKAPKLLIYAASSLQSGVPSRFSGSGSGTDFTLTISSLQPEDFATYYCQQGDYTLFTFGQGTKLEIK
notes: Tested as IgG
B3: anti-OX40 antibody 1166/1167 (antibody, V domains shown)
VH: EVQLLESGGGLVQPGGSLRLSCAASGFTFGGYYMSWVRQAPGKGLEWVSAISGSGGSTYYADSVKGRFTISRDNSKNTLYLQMNSLRAEDTAVYYCARYDYASMDYWGQGTLVTVSS
VL: DIQMTQSPSSLSASVGDRVTITCRASQSISSYLNWYQQKPGKAPKLLIYAASSLQSGVPSRFSGSGSGTDFTLTISSLQPEDFATYYCQQYYWYGLSTFGQGTKLEIK
notes: also called monospecific OX40 antibody
B4: anti-OX40 antibody 1170/1171 (antibody, V domains shown)
VH: B3 VH with A50Y, S52P, A102Y, S103W
VL: B3 VL with Y91G, Y92H, W93G, Y94S, G95Y, L96P, S97H
notes: Tested as IgG
B5: anti-OX40 antibody 1490/1135 (antibody, V domains shown)
VH: EVQLLESGGGLVQPGGSLRLSCAASGFTFSSYAMSWVRQAPGKGLEWVSGISYYGGYTYYADSVKGRFTISRDNSKNTLYLQMNSLRAEDTAVYYCARYYPHHYIDYWGQGTLVTVSS
VL: not shown
notes: Tested as IgG
B6: human wild-type CD86 (monomeric soluble extracellular domain), sample 'Wild type' (ligand)
chain: APLKIQAYFNETADLPCQFANSQNQSLSELVVFWQDQENLVLNEVYLGKEKFDSVHSKYMGRTSFDSDSWTLRLHNLQIKDKGLYQCIIHHKKPTGMIRIHQMNSELSVLA
notes: also called wild type protein
B7: CD86 mutant 910 (ligand)
chain: LKIQAYFNETADLPCQFANSQNQSLSELVVFWQDQENLVLNEVYLGKEKFDSVDSKYMGRTSFDSDSWTLRLHNLQIKDKGIYQCIIHHKKPTGMVKIHEMNSELSVLA
notes: Variant of the soluble extracellular domain of human CD86
B8: CD86 mutant 938 (ligand)
chain: B7 chain with V39I, D54H, E100Q
notes: as for B7
B9: CD86 mutant 907 (ligand)
chain: B7 chain with D54H, I82L, V96I
notes: as for B7
B10: CD86 mutant 906 (ligand)
chain: B7 chain with F7I, Q23L, K49R, I82F, M95L
notes: as for B7
B11: CD86 mutant 908 (ligand)
chain: B7 chain with D54H
notes: as for B7
B12: CD86 mutant 901 (ligand)
chain: B7 chain with Q23L, S24T, D54H, I86V, V96I, A109T
notes: as for B7
B13: CD86 mutant 904 (ligand)
chain: B7 chain with V29I, K49R, S52A, T93S, E100Q, N102D
notes: as for B7
B14: CD86 mutant 915 (ligand)
chain: B7 chain with V39I, I82F, T93S, M95L, V96I, E100Q, N102D
notes: as for B7
B15: CD86 mutant 900 (ligand)
chain: B7 chain with I86V, T93S, M95L
notes: as for B7

Substitutions are numbered along the chain they refer to.

The first assay addresses T1, chimeric OX40 construct 1545: Human …. The assay can be described thus: flow cytometry, transfected 293-F cells. The procedure:
(§1) The mouse/human chimeras were transiently transfected into FreeStyle 293-F cells (Invitrogen), incubated 48 hours in FreeStyle 293 expression medium (Invitrogen) 37 C, 8% CO₂, 135 rpm. The transfected cells were incubated with human OX40 antibodies, human OX40L (hOX40L, RnD Systems), mouse OX40L (mOX40L, RnD Systems) and controls for 30 min 4° C. and then detected with a-huIgG-PE (Jackson lmmunoresearch) 30 min 4° C. Cells were analyzed with FACS Verse (BD Biosciences). Binding to the different chimeric constructs were calculated as relative (mean fluorescence intensity) MFI compared to the binding of the isotype control.
Background: A flow cytometer gives signals particle by particle.
Regarding B1, the “relative MFI compared to isotype control” value was determined as 37.3.

For a further assay, the target named is T2, chimeric OX40 construct 1546: Human …. The assay can be described thus: flow cytometry, transfected 293-F cells. The procedure: as §1
On to B1, for which the “relative MFI compared to isotype control” value stood at 0.9.

Another assay has as its target T3, chimeric OX40 construct 1547: Human …. As to the kind of experiment: flow cytometry, transfected 293-F cells. The method, then: as §1
Regarding B1, the “relative MFI compared to isotype control” value is 1.

The next assay concerns the target T4, chimeric OX40 construct 1548: Human …. As to the kind of experiment: flow cytometry, transfected 293-F cells. The procedure: as §1
Turning to B2, the “relative MFI compared to isotype control” value amounted to 17.2.

As to B3, the “relative MFI compared to isotype control” value was determined as 15.8.

Turning to B4, the “relative MFI compared to isotype control” value was 20.3.

As for B1, the “relative MFI compared to isotype control” value was found to be 1.

As for B5, the “relative MFI compared to isotype control” value came out at 1.1.

A further assay deals with T5, construct 84: Construct containing the …. As to the kind of experiment: flow cytometry, transfected 293-F cells. The procedure: as §1
B1: the “relative MFI compared to isotype control” value is 27.5.

The next assay deals with T6, CTLA4-Fc (Fitzgerald, #30R-CD152) (human, UniProt P16410 38-152, biotinylated where used as soluble reagent in the inhibition ELISAs).
T6 construct: Bought reagent; also called human CTLA-4 (Fitzgerald); biotinylated-CTLA4
T6 sequence (P16410 38-152 limits assumed): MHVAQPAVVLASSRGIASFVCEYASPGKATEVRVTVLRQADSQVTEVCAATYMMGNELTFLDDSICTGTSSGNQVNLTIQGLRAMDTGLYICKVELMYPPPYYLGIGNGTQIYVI
As to the kind of experiment: SPR (Biacore); ratio [Kd for CD28]/[Kd for CTLA-4]. The method, then:
Either CTLA4-Fc (Fitzgerald, #30R-CD152) or CD28-Fc (R&D Systems, 342-CD) was immobilized to the Biacore™ sensor chip, CM5, using conventional amine coupling. […] The association was followed for 3 minutes and the dissociation for 10 minutes. Regeneration was performed twice using 5 mM NaOH for 30 seconds. The kinetic parameters and the affinity constants were calculated using BIAevaluation 4.1 software (Table 1.3).
Background: SPR reads the build-up and loss of mass on a sensor chip optically.
On to B6, for which the Kd binding ratio turned out to be 1.6.

Regarding B7, the Kd binding ratio came out at 5.1.

In the case of B8, the Kd binding ratio amounted to 5.5.

For B9, the Kd binding ratio was found to be 5.6.

For the molecule B10, the Kd binding ratio came out at 0.8.

Consider B11, for which the Kd binding ratio worked out at 4.7.

For B12, the Kd binding ratio came out at 2.7.

In the case of B13, the Kd binding ratio came to 6.8.

Turning to B14, the Kd binding ratio was determined as 1.9.

The target of another assay is T6, CTLA4-Fc (Fitzgerald, #30R-CD152). The assay can be described thus: binding ELISA; ratio [EC50 for CD28-Fc]/[EC50 for CTLA4-Fc]. The procedure: 96-well flat bottom high binding plates (Greiner, #655074) were coated with either CTLA4-Fc (Fitzgerald, #30R-CD152) or CD28-Fc (R&D systems, 342-CD) by incubating overnight at 4° C. […] The plates were washed again and sample or controls (serially diluted 1/5 from 200-0.001 μg/ml) were added to the wells. The samples were incubated for 1 h at room temperature and then washed. Detection antibody, goat-anti-human IgG Fcγ-HRP (Jackson, #109-035-098) was added and the plates were subsequently developed using SuperSignal Pico Chemiluminescent substrate (Thermo Scientific, #37069) and detected with an Envision reader (Perkin Elmer). EC50 values were calculated for both CTLA4 and CD28. The binding ratio (EC50 binding ratio=[EC50 for CD28]÷[EC50 for CTLA-4]) was calculated for each polypeptide and is shown in Table 1.1.
In general terms: An ELISA detects its analyte on a solid surface through an enzyme-linked reagent.
As to B6, the EC50 binding ratio was 3.4.

With B7, the EC50 binding ratio turned out to be 7.7.

With B8, the EC50 binding ratio was determined as 2.

B9: the EC50 binding ratio was 30.5.

As for B10, the EC50 binding ratio was 16.2.

For B11, the EC50 binding ratio came out at 6.2.

With B12, the EC50 binding ratio came to 17.2.

Take B15: the EC50 binding ratio was determined as 3.5.

For the molecule B13, the EC50 binding ratio worked out at 12.2.

Consider B14, for which the EC50 binding ratio was found to be 9.9.
